Laboratory results from article PMC6389388 (Journal of molecular biology, 2019).

B1: His-tagged hRpn10^196–306 (domain or fragment, human, UniProt P55036 196-306, looked up)
chain: MLGLGASDFEFGVDPSADPELALALRVSMEEQRQRQEEEARRAAAASAAEAGIATTGTEDSDDALLKMTISQQEFGRTGLPDLSSMTEEEQIAYAMQMSLQGAEFGQAESA

Assays:
[1] = molecular target: B1; test: NMR structure
[2] = molecular target: B1; test: NMR titration
[3] = molecular target: M1 diubiquitin (UniProt P0CG48 1-76; P0CG48 1-76, M1 linkage between the two ubiquitins); test: pull-down

stoichiometry N [1]	KD of the secondary binding site (UIM-2) [2]	binding result [3]	Binder
2	24.8 ± 3.1 µM	–	UBQLN2 UBL domain (domain or fragment, human) APAEPKIIKVTVKTPKEKEEFAVPENSSVQQFKEAISKRFKSQTDQLVLIFAGKILKDQDTLIQHGIHDGLTVHLVIK
–	–	binds	B1
